The values below come from patent publication US20220073608A1 (JIANGSU HUAIYU PHARMACEUTICAL, published 2022).

Numbering of substitutions follows the chain as printed.

First the molecules themselves.
T1: hSEMA4D ECD-His (His-tagged human SEMA4D protein extracellular domain, Met22-Arg734) (human, UniProt Q92854 22-734)
T1 construct: Expressed in CHO-S cells, purified on Ni column; also called protein immunogen; immunogen A; not shown: His tag of the pCP vector
T1 sequence: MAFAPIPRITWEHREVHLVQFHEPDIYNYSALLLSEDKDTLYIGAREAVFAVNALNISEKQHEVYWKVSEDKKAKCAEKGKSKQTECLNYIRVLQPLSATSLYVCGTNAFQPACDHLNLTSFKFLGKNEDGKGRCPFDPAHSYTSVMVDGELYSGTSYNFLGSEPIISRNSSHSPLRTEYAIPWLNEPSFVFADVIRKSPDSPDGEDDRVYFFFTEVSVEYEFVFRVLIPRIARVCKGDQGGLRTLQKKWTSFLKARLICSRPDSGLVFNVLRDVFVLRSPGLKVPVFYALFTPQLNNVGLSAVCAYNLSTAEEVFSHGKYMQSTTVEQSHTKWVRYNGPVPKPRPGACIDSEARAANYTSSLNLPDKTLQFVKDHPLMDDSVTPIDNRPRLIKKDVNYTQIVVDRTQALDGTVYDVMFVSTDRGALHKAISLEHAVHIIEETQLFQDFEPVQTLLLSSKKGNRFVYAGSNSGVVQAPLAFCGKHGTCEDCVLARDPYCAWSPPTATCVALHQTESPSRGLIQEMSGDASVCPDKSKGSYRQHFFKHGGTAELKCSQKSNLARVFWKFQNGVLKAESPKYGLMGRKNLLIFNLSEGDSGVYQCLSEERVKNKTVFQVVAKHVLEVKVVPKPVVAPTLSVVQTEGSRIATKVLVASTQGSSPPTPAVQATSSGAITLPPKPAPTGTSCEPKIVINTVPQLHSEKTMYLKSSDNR

B1: 42B7G2 (antibody, V domains shown)
VH: QVQLQQSGAELARPGASVKLSCKASGYTFTDYGISWVKQRTGQGLEWIGEIYLRNDNSYYNEKFKGKATLTADKSSNTAYMELRSLTSEDSAVYFCARWGDHGNNYEDAMDYWGQGTSVTVSS
VL: DIVLTQSPASLAMSLGKRATISCRASESVSIIGSNLIHWYQQKPGQPPKLLIYHASNLETGVPARFSGSGSRTDFTLTIDPVEEDDVAIYYCLQSRKVPYTFGGGTKLEIK
notes: Mouse monoclonal antibody purified from hybridoma supernatant on protein A
B2: 37F11F9 (antibody, V domains shown)
VH: EVQLQQSGPVLVKPGASVKMSCKASGYTFTDYYMNWVKQSHGKSLEWIGLINPYSGGSTFNQKFKAKATLTVDKSSSSAYMDLNSLTSEDSAVYYCARVGDGYYGVTHGMDYWGQGTSVTVSS
VL: DIVMTPSQKFMSTTVGDRVSITCKASQNVGTAVAWYQQKPGQSPTILIYSASNRYTGVPDRFTGSGSGTDFTLTISNMKSEDLADYFCQQYYIYPFTFAAGTKLELK
notes: as for B1
B3: 32C8F10 (antibody, V domains shown)
VH: EVQLQQSGAELVRPGASVKLSCTASGFNIKDEYIHWVKQRPEQGLEWIGWIDPANGHTEYASRFQAKATITADTSSNTAYLQLSSLTSEDTAVYYCTTGDYDGFAYWGQGTLVTVST
VL: QIVLTQSPAIMSASPGEKVTISCSARSSVSYMYWYQQKPGSSPKPWIYRTSNLASGVPARFSGSGSGTSYSLTISSMEAEDAATYYCQHYHTYPYTFGGGTKLEIK
notes: as for B1
B4: 31G10C5 (antibody, V domains shown)
VH: B3 VH with E32D, T58I, R63N, A105T
VL: B3 VL
notes: as for B1
B5: 31C11G2 (antibody, V domains shown)
VH: B3 VH with A105V
VL: B3 VL with S22F
notes: as for B1
B6: 37C4F7 (antibody, V domains shown)
VH: EFQLQQSGPEVVKPGASVKISCKASGYSFTDYNMNWMKQSKGKSLEWIGVINPNYGTTTYNQNFKGKATLTVDQSSSTAYMQLNSLTSEDSAVYYCARDMYYVYAYYTMDYWGQGTSVTVSS
VL: DVVMTQTPLSLPVSLGDQASISCRSSQSLVHSNGHTYLHWYLQRPGQSPTLLIYKVSNRFSGVPDRFSGSGSGTDFTLKISRVEAEDLGVYFCSQGTHVPWTFGGGTKLEIK
notes: as for B1
B7: 38H2E3 (antibody, V domains shown)
VH: B6 VH with N52S, N54D, G66D, R98K, Q114H
VL: B6 VL with F67V, W101R
notes: as for B1

One test addresses T1, hSEMA4D ECD-His (His-tagged human …). The test can be described thus: ELISA, coated hSEMA4D ECD-His; Ab 0.000085 nM. How it is done: (§1) First, hSEMA4D ECD-His was diluted with PBS to a final concentration of 1.0 μg/mL, and then was added to a 96-well ELISA plate, 100 μL per well, sealed with plastic film and incubated overnight at 4° C. On the next day, the plate was washed with a plate washing solution, that is, PBS buffer containing 0.05% (v/v) Tween20, for 4 times, and added with blocking solution, that is, PBS buffer containing 0.05% (v/v) Tween20 and 2% (w/w) BSA, blocked at 37° C. for 1 hour. The blocking solution was poured out and the plate was washed 4 times with the plate washing solution. 100 μL of the purified leading antibodies obtained in Examples 1 and 2 was added to each well. After incubation at 37° C. for 1 hour, the plate was washed 4 times with a plate washing solution. 100 μL of horseradish peroxidase (HRP) labeled secondary antibody (purchased from Sigma) was added at a dilution of 1:10000 to each well, and the plate was incubated at 37° C. for 1 hour, and washed 4 times with a plate washing solution. 100 μL TMB substrate was added to each well, and the plate was incubated at room temperature for 5 minutes, and added with 100 μL stop solution (1.0N HCl) to each well. A microplate reader (SpectraMax M5e, purchased from Molecular Device) was used to read the A450 nm value. […] Wherein, the data in the table was the OD450 nm value.
On to B1, for which the OD450 nm is 0.0753.
Consider B2, for which the OD450 nm stood at 0.0658.
The same measure, in the same setting: with B3 the figure was 0.0699; with B4, 0.0694; with B5, 0.0753.
Still for that read-out and setting: the same measure for B6: 0.0661.
On the same count and under the same terms, with B7 the figure was 0.0635.

A further test concerns the target T2, monkey SEMA4D, full length, on CHO-K1 cells (CHO-K1 cSEMA4D) (monkey).
T2 construct: whole, on cells; also called monkey SEMA4D recombinant cells
The test can be described thus: FACS, CHO-K1 cSEMA4D cells; Ab 66.7 nM. The procedure: (§2) After the cells were counted, they were diluted with PBS to 2×10⁶ cells per milliliter. After washing, 100 μL of diluted and purified leading antibodies was added to each well and the plate was incubated for 1 hour on ice. […] Cells were washed 2 times by centrifugation with FACS buffer. The cells were suspended with 200 μL of FACS buffer, FACS (FACS Verse, purchased from BD) was used to detect and analyze the results.
In the case of B1, the MFI worked out at 2670.
Turning to B2, the MFI stood at 2520.
The molecule B3 showed an MFI of 5780.
On the same count and under the same terms, with B4 the figure was 4600; with B5, 4370; with B6, 2900.
Same read-out and setting: the same measure for B7: 2890.

The target in another test is T1, hSEMA4D ECD-His (His-tagged human …). The test can be described thus: ELISA, coated hSEMA4D ECD-His; Ab 1.33 nM. The procedure:
as §1
(ELISA stands for enzyme-linked immunosorbent assay.)
As to B1, the OD450 nm was determined as 1.87.
Still for that read-out and setting: the same measure for B2: 1.39; for B3: 1.87; for B4: 1.52.
Still for that read-out and setting: the same measure for B5: 1.67; for B6: 0.91.
B7 came in with an OD450 nm of 1.1.

Another test concerns the target T2, monkey SEMA4D, full length, on CHO-K1 …. Nature of the test: FACS, CHO-K1 cSEMA4D cells; Ab 0.00427 nM. The procedure: as §2
For orientation: A flow cytometer gives signals particle by particle.
Molecule B1 came in with an MFI of 92.7.
On the same count and under the same terms, the same measure for B2: 45.4; for B3: 97.6.
With B4, the MFI is 152.
Turning to B5, the MFI is 139.
Turning to B6, the MFI came to 38.2.
The same measure, in the same setting: with B7 the figure was 35.

The target is the same in a further test. The test can be described thus: FACS, CHO-K1 cSEMA4D cells; Ab 0.534 nM. The procedure: as §2
The molecule B1 returned an MFI of 1690.
Same read-out and setting: with B2 the figure was 925.
Same read-out and setting: the same measure for B3: 2930; for B4: 3490.
Still for that read-out and setting: with B5 the figure was 2980; with B6, 760; with B7, 601.
